In US5928931A, “Isolation, purification and cloning of retinol dehydratase” (Cornell Research Foundation, Inc., priority 1997, dated 1999) one finds Km data, which are given here for 1 protein.

The Km is the concentration of substrate that gives half-maximal velocity.

Substrate in data set [1]: CC1=C(/C=C/C(C)=C/C=C/C(C)=C/CO)C(C)(C)CCC1
The experiment in a line: Retinol dehydratase assay ([3H]-retinol to [3H]-AR, HPLC radiomatic detection); kinetic studies. The conditions noted are these: 24.0 °C. The class given is biochemical, Spodoptera frugiperda.

Substrate in data set [2]: Nc1ncnc2c1ncn2[C@@H]1O[C@H](COP(=O)(O)OS(=O)(=O)O)[C@@H](OP(=O)(O)O)[C@H]1O
The experiment in a line: purified protein, by the assay type. The conditions noted are these: other: purified recombinant retinol dehydratase, [3H]-retinol assay, n=3; 24.0 °C.

B1: retinol dehydratase (Spodoptera frugiperda) (protein)
chain: MEKQQDLPFPYEFRELNPEEDKLVKANLGAFPTTYVKLGPKGYMVYRPYLKDAANIYNMPLRPTDVFVASYQRSGTTMTQELVWLIENDLNFEAAKTYMSLRYIYLDGFMIYDPEKQEEYNDILPNPENLDMERYLGLLEYFSRPGSSLLAAVPPTEKRFVKTHLPLSLMPPNMLDTVKMVYLARDPRDVAVSSFHHARLLYLLNKQSNFKDFWEMFHRGLYTLTPYFEHVKEAWAKRHDPNMLFLFYEDYLKDLPGCIARIADFLGKKLSEEQIQRLCEHLNFEKFKNNGAVNMEDYREIGILADGEHFIRKGKAGCWRDYFDEEMTKQAEKWIKDNLKDTDLRYPNMEL
Regarding B1, the Km in data set [1] (other: BSA carrier, second condition as printed) was 0.05 µM; in data set [1] (other: n=5, free retinol from carrier protein affinities) it was 0.001 µM; in data set [1] (other: native retinol dehydratase 0.1 μg/assay, 3H-retinol, carrier BSA or CRBP, free retinol, representative experiment, non-linear regression), 0.00066 µM; in data set [1] (other: with 2×10^-7 M CRBP-1), 0.025 µM; in data set [1] (other: with 10^-3 M BSA), 0.4 µM; in data set [2] it was 0.26 ± 0.05 µM.
